The record followed here is the supplement of paper PMC10567573.

First the molecules themselves.
B1: ZNF8 (parent)
chain: RTHTGEKPYTCSVCGKSFSRTTCL
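Also: lentivirally expressed fusions sorted by FACS into six bins by GFP to DsRed ratio, PSI derived from sequencing read proportions per bin multiplied by bin number.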

The data set covers variants of B1. Kind of data set: protein stability index of a GFP-peptide fusion (GPS, HEK-293T) (PSI 1-6); higher = more stable. The following applies: c terminus: a fixed tail appended.
As for RTHTGEKPYPCSVCGKSFSRTTCL [T10P], the protein stability index amounted to 2.27.
As to RTHTGEKPYECSVCGKSFSRTTCL [T10E], the protein stability index amounted to 2.39.
For the variant RTHTGEKPYVCSVCGKSFSRTTCL [T10V], the protein stability index amounted to 2.72.
For RTHTGEKPYDCSVCGKSFSRTTCL [T10D], the protein stability index was 2.43.
Next, RTHTGEKPYACSVCGKSFSRTTCL [T10A]: 2.06; RTHTGEKPYNCSVCGKSFSRTTCL [T10N]: 2.2.
Under RTHTGEKPYWCSVCGKSFSRTTCL [T10W] stands 1.75; under RTHTGEKPYCCSVCGKSFSRTTCL [T10C], 2.83; under RTHTGEKPYYCSVCGKSFSRTTCL [T10Y], 1.98.
With RTHTGEKPYLCSVCGKSFSRTTCL [T10L], the protein stability index stood at 2.05.
Next, RTHTGEKPYFCSVCGKSFSRTTCL [T10F]: 1.89; RTHTGEKPYHCSVCGKSFSRTTCL [T10H]: 2.75.
As to RTHTGEKPYKCSVCGKSFSRTTCL [T10K], the protein stability index came out at 2.15.
With RTHTGEKPYQCSVCGKSFSRTTCL [T10Q], the protein stability index came out at 2.6.
In the case of RTHTGEKPYMCSVCGKSFSRTTCL [T10M], the protein stability index is 2.19.
For the variant RTHTGEKPYGCSVCGKSFSRTTCL [T10G], the protein stability index is 2.21.
In the case of RTHTGEKPYRCSVCGKSFSRTTCL [T10R], the protein stability index is 2.51.
Next, RTHTGEKPYICSVCGKSFSRTTCL [T10I]: 2.65.
For RTHTGEKPYSCSVCGKSFSRTTCL [T10S], the protein stability index stood at 2.36.
For RTHTGEKLYTCSVCGKSFSRTTCL [P8L], the protein stability index stood at 3.12.
Take RTHTGEKHYTCSVCGKSFSRTTCL [P8H]: the protein stability index was determined as 2.63.
Take RTHTGEKSYTCSVCGKSFSRTTCL [P8S]: the protein stability index worked out at 2.17.
Next, RTHTGEKAYTCSVCGKSFSRTTCL [P8A]: 3.27; RTHTGEKFYTCSVCGKSFSRTTCL [P8F]: 2.25; RTHTGEKIYTCSVCGKSFSRTTCL [P8I]: 3.05.
For the variant RTHTGEKKYTCSVCGKSFSRTTCL [P8K], the protein stability index was 2.04.
As for RTHTGEKNYTCSVCGKSFSRTTCL [P8N], the protein stability index is 2.93.
For RTHTGEKDYTCSVCGKSFSRTTCL [P8D], the protein stability index came to 2.78.
As to RTHTGEKWYTCSVCGKSFSRTTCL [P8W], the protein stability index was 2.9.
Next, RTHTGEKVYTCSVCGKSFSRTTCL [P8V]: 2.59; RTHTGEKRYTCSVCGKSFSRTTCL [P8R]: 2.46; RTHTGEKEYTCSVCGKSFSRTTCL [P8E]: 2.95.
Under RTHTGEKMYTCSVCGKSFSRTTCL [P8M] stands 2.62; under RTHTGEKCYTCSVCGKSFSRTTCL [P8C], 2.81.
As to RTHTGEKYYTCSVCGKSFSRTTCL [P8Y], the protein stability index came out at 2.95.
Next, RTHTGEKGYTCSVCGKSFSRTTCL [P8G]: 2.9.
For RTHTGEKQYTCSVCGKSFSRTTCL [P8Q], the protein stability index turned out to be 3.05.
Regarding RTHTGEKTYTCSVCGKSFSRTTCL [P8T], the protein stability index came out at 2.86.
Take RTHTGEKPATCSVCGKSFSRTTCL [Y9A]: the protein stability index came out at 2.3.
Under RTHTGEKPCTCSVCGKSFSRTTCL [Y9C] stands 3.77.
For the variant RTHTGEKPKTCSVCGKSFSRTTCL [Y9K], the protein stability index is 2.08.
As for RTHTGEKPDTCSVCGKSFSRTTCL [Y9D], the protein stability index came out at 2.78.
Take RTHTGEKPNTCSVCGKSFSRTTCL [Y9N]: the protein stability index was found to be 2.51.
For RTHTGEKPHTCSVCGKSFSRTTCL [Y9H], the protein stability index worked out at 2.11.
Under RTHTGEKPWTCSVCGKSFSRTTCL [Y9W] stands 2.42; under RTHTGEKPVTCSVCGKSFSRTTCL [Y9V], 2.65; under RTHTGEKPRTCSVCGKSFSRTTCL [Y9R], 2.29.
In the case of RTHTGEKPETCSVCGKSFSRTTCL [Y9E], the protein stability index was found to be 2.95.
With RTHTGEKPQTCSVCGKSFSRTTCL [Y9Q], the protein stability index stood at 2.31.
Under RTHTGEKPTTCSVCGKSFSRTTCL [Y9T] stands 2.59.
Regarding RTHTGEKPFTCSVCGKSFSRTTCL [Y9F], the protein stability index came out at 2.32.
For RTHTGEKPITCSVCGKSFSRTTCL [Y9I], the protein stability index was found to be 2.59.
Regarding RTHTGEKPPTCSVCGKSFSRTTCL [Y9P], the protein stability index came to 2.4.
Take RTHTGEKPMTCSVCGKSFSRTTCL [Y9M]: the protein stability index stood at 2.23.
In the case of RTHTGEKPGTCSVCGKSFSRTTCL [Y9G], the protein stability index is 2.5.
As to RTHTGEKPSTCSVCGKSFSRTTCL [Y9S], the protein stability index amounted to 2.62.
With RTHTGEKPLTCSVCGKSFSRTTCL [Y9L], the protein stability index came to 2.39.
As for RTHTGYKPYTCSVCGKSFSRTTCL [E6Y], the protein stability index turned out to be 2.11.
For the variant RTHTGEKPYTNSVCGKSFSRTTCL [C11N], the protein stability index amounted to 2.79.
RTHTGEKPYTVSVCGKSFSRTTCL [C11V]: the protein stability index was determined as 2.24.
With RTHTGEKPYTHSVCGKSFSRTTCL [C11H], the protein stability index was 1.99.
For RTHTGEKPYTSSVCGKSFSRTTCL [C11S], the protein stability index stood at 2.52.
For RTHTGEKPYTRSVCGKSFSRTTCL [C11R], the protein stability index was 2.39.
RTHTGEKPYTMSVCGKSFSRTTCL [C11M]: the protein stability index came out at 3.35.
For the variant RTHTGEKPYTDSVCGKSFSRTTCL [C11D], the protein stability index amounted to 2.83.
For the variant RTHTGEKPYTPSVCGKSFSRTTCL [C11P], the protein stability index came to 2.56.
As for RTHTGEKPYTASVCGKSFSRTTCL [C11A], the protein stability index came to 2.88.
Consider RTHTGEKPYTESVCGKSFSRTTCL [C11E], for which the protein stability index came to 2.48.
Next, RTHTGEKPYTLSVCGKSFSRTTCL [C11L]: 2.43; RTHTGEKPYTTSVCGKSFSRTTCL [C11T]: 2.39; RTHTGEKPYTKSVCGKSFSRTTCL [C11K]: 2.25.
For RTHTGEKPYTQSVCGKSFSRTTCL [C11Q], the protein stability index was found to be 3.18.
Take RTHTGEKPYTGSVCGKSFSRTTCL [C11G]: the protein stability index stood at 2.33.
Turning to RTHTGEKPYTISVCGKSFSRTTCL [C11I], the protein stability index amounted to 2.01.
Regarding RTHTGEKPYTFSVCGKSFSRTTCL [C11F], the protein stability index was 2.23.
In the case of RTHTGEVPYTCSVCGKSFSRTTCL [K7V], the protein stability index was 2.44.
As to RTHTGEAPYTCSVCGKSFSRTTCL [K7A], the protein stability index was determined as 2.35.
For RTHTGEDPYTCSVCGKSFSRTTCL [K7D], the protein stability index was found to be 2.17.
Regarding RTHTGENPYTCSVCGKSFSRTTCL [K7N], the protein stability index was 2.42.
Take RTHTGEPPYTCSVCGKSFSRTTCL [K7P]: the protein stability index came to 2.96.
As for RTHTGEYPYTCSVCGKSFSRTTCL [K7Y], the protein stability index came out at 2.36.
RTHTGEIPYTCSVCGKSFSRTTCL [K7I]: the protein stability index was 2.15.
Next, RTHTGEHPYTCSVCGKSFSRTTCL [K7H]: 2.93; RTHTGERPYTCSVCGKSFSRTTCL [K7R]: 2.49; RTHTGEEPYTCSVCGKSFSRTTCL [K7E]: 2.36.
As for RTHTGELPYTCSVCGKSFSRTTCL [K7L], the protein stability index is 2.72.
Under RTHTGEWPYTCSVCGKSFSRTTCL [K7W] stands 2.31.
In the case of RTHTGEFPYTCSVCGKSFSRTTCL [K7F], the protein stability index turned out to be 2.5.
For RTHTGESPYTCSVCGKSFSRTTCL [K7S], the protein stability index is 2.47.
With RTHTGEMPYTCSVCGKSFSRTTCL [K7M], the protein stability index came out at 2.29.
As to RTHTGEQPYTCSVCGKSFSRTTCL [K7Q], the protein stability index worked out at 2.08.
With RTHTGETPYTCSVCGKSFSRTTCL [K7T], the protein stability index amounted to 2.49.
Consider RTHTGECPYTCSVCGKSFSRTTCL [K7C], for which the protein stability index was determined as 2.72.
On to RTHTGEGPYTCSVCGKSFSRTTCL [K7G], for which the protein stability index worked out at 3.25.
